Results published in patent publication US20060263345A1, “Butyrylcholinesterase variant polypeptides with increased catalytic efficiency and methods of use” (priority 2003, published 2006).
“Also recorded” adds a separate entry of the source.

What was measured:
[1] = cited from earlier work
cocaine-induced toxicity = assay: in vivo cocaine toxicity, cocaine infusion 30 mg/kg in cannulated rats; conditions: rat; for effect of therapeutic treatment on cocaine-induced toxicity: FIG. 9; for effect of pre-treatment on cocaine-induced toxicity: i.v. 0.1-0.5 mg/kg, 1 minute before cocaine 2 mg/kg/min for 15 minutes, Chi-squared test p<0.001, FIG. 8
Procedure: Briefly, unilateral/bilateral jugular cannulations were performed under isoflurane anesthesia (max. 20 min) on 350 g male :Sprague Dawley®SD® rats (Harlan Sprague Dawley, Inc.) The animals were allowed to recover for 24 hours before studies commenced. […] One minute later, the cannula was connected to an infusion pump (Harvard Apparatus) and cocaine (HCI salt) was infused at 6 mls/hr (2 mg/kg/min) for 15 minutes corresponding to a total dose equal to 30 mg/kg. The time-to-onset for slight convulsions, strong convulsions and death were recorded. […] In a second series of studies, 0.5 mg/kg of the A328W/Y332M/S287G/F227A variant was administered at various time points after initiation of the 30mglkg cocaine infusion and gross observations recorded.
The variant was administered at the indicated doses, 1 minute prior to infusion of 30 mg/kg cocaine (2 mg/kg/min for 15 minutes).

[2] = microtiter isotope tracer [3H]-cocaine hydrolysis assay of immobilized butyrylcholinesterase variants; assay type: biochemical; conditions: for increase in cocaine hydrolysis activity relative to butyrylcholinesterase: compared to human butyrylcholinesterase SEQ ID NO: 44, approximate values; for Relative Activity of butyrylcholinesterase variants (WT = 1) with enhanced cocaine hydrolase activity: relative to wild-type = 1, catalytic efficiency (Vmax/Km), [3H]-cocaine microtiter assay
From the text: At the conclusion of the isotope tracer assay, an aliquot of the reaction mix is acidified in order to take advantage of the solubility difference between the product and the substrate at pH 3.0. […] Prospect, Ill.) while [3H]-cocaine is not.
The supernatants isolated from each of the butyrylcholinesterase variant library clones contains variable butyrylcholinesterase enzyme concentrations.
At least three approaches are used to either increase the assay sensitivity or the assay signal.
Km values for (−)-cocaine are determined at 37° C. Vmax and Km values are calculated using Sigma Plot (Jandel Scientific, San Rafael, Calif.). The number of active sites of butyrylcholinesterase is determined by the method of residual activity using echothiopate iodide or diisopropyl fluorophosphates as titrants, as described previously by Masson et al., Biochemistry 36: 2266-2277 (1997). […] Purified human butyrylcholinesterase is used as the standard for the ELISA quantitation assay. The catalytic rate constant, kcat, is calculated by dividing Vmax by the concentration of active sites.

B1: A328Y (protein, UniProt P06276 29-602, looked up, variant A328Y)
Cholinesterase: EDDIIIATKNGKVRGMNLTVFGGTVTAFLGIPYAQPPLGRLRFKKPQSLTKWSDIWNATKYANSCCQNIDQSFPGFHGSEMWNPNTDLSEDCLYLNVWIPAPKPKNATVLIWIYGGGFQTGTSSLHVYDGKFLARVERVIVVSMNYRVGALGFLALPGNPEAPGNMGLFDQQLALQWVQKNIAAFGGNPKSVTLFGESAGAASVSLHLLSPGSHSLFTRAILQSGSFNAPWAVTSLYEARNRTLNLAKLTGCSRENETEIIKCLRNKDPQEILLNEAFVVPYGTPLSVNFGPTVDGDFLTDMPDILLELGQFKKTQILVGVNKDEGTYFLVYGAPGFSKDNNSIITRKEFQEGLKIFFPGVSEFGKESILFHYTDWVDDQRPENYREALGDVVGDYNFICPALEFTKKFSEWGNNAFFYYFEHRSSKLPWPEWMGVMHGYEIEFVFGLPLERRDNYTKAEEILSRSIVKRWANFAKYGNPNETQNNSTSWPVFKSTEQKYLTLNTESTRIMTKLRAQQCRFWTSFFPKVLEMTGNIDEAEWEWKAGFHRWNNYMMDWKNQFNDYTSKKESCVGL
For B1, the “increase in cocaine hydrolysis activity compared to human butyrylcholinesterase” value ([1]; Xie et al. 1999) is given as “four” and the “cocaine hydrolysis activity (in words)” value ([1]; recombinantly prepared mutations tested previously) is given as “increased cocaine hydrolysis activity”.

B2: A328W/Y332M/S287G/F227A (protein)
chain: EDDIIIATKNGKVRGMNLTVFGGTVTAFLGIPYAQPPLGRLRFKKPQSLTKWSDIWNATKYANSCCQNIDQSFPGFHGSEMWNPNTDLSEDCLYLNVWIPAPKPKNATVLIWIYGGGFQTGTSSLHVYDGKFLARVERVIVVSMNYRVGALGFLALPGNPEAPGNMGLFDQQLALQWVQKNIAAFGGNPKSVTLFGESAGAASVSLHLLSPGSHSLFTRAILQSGSANAPWAVTSLYEARNRTLNLAKLTGCSRENETEIIKCLRNKDPQEILLNEAFVVPYGTPLGVNFGPTVDGDFLTDMPDILLELGQFKKTQILVGVNKDEGTWFLVMGAPGFSKDNNSIITRKEFQEGLKIFFPGVSEFGKESILFHYTDWVDDQRPENYREALGDVVGDYNFICPALEFTKKFSEWGNNAFFYYFEHRSSKLPWPEWMGVMHGYEIEFVFGLPLERRDNYTKAEEILSRSIVKRWANFAKYGNPNETQNNSTSWPVFKSTEQKYLTLNTESTRIMTKLRAQQCRFWTSFFPKVLEMTGNIDEAEWEWKAGFHRWNNYMMDWKNQFNDYTSKKESCVGL
modifications: Butyrylcholinesterase variant
For B2, the “effect of therapeutic treatment on cocaine-induced toxicity” value (“effect of therapeutic treatment” for short) (cocaine-induced toxicity; 0.5 mg/kg administered at 8 minutes into the 30 mg/kg cocaine infusion (after first slight convulsions)) was “full protection”, the “effect of therapeutic treatment” value (cocaine-induced toxicity; 0.5 mg/kg administered at later time points than 8 minutes, 0.5 mg/kg) was “decreased in ability to protect” and the “effect of therapeutic treatment” value (cocaine-induced toxicity; 0.5 mg/kg administered at later time points than 8 minutes, listed as AME-359, 0.5 mg/kg) was “decreased in ability to protect”. The “effect of pre-treatment on cocaine-induced toxicity” value (cocaine-induced toxicity) was “decreasing cocaine-toxicity; also recorded: statistically significant protection against cocaine”, the “effect of pre-treatment on cocaine-induced toxicity” value (cocaine-induced toxicity; listed as AME-359) was “statistically significant protection against cocaine” and the “time-of-onset of symptoms associated with cocaine-induced toxicity” value (cocaine-induced toxicity; pre-treatment 1 minute before 30 mg/kg cocaine infusion, FIG. 12) was “delaying the time-of-onset of symptoms”. For the same molecule, the “increase in cocaine hydrolysis activity relative to butyrylcholinesterase” value [2] was “one-hundred”.

B3: P285S (protein, UniProt P06276 29-602, looked up, variant P285S)
Cholinesterase: EDDIIIATKNGKVRGMNLTVFGGTVTAFLGIPYAQPPLGRLRFKKPQSLTKWSDIWNATKYANSCCQNIDQSFPGFHGSEMWNPNTDLSEDCLYLNVWIPAPKPKNATVLIWIYGGGFQTGTSSLHVYDGKFLARVERVIVVSMNYRVGALGFLALPGNPEAPGNMGLFDQQLALQWVQKNIAAFGGNPKSVTLFGESAGAASVSLHLLSPGSHSLFTRAILQSGSFNAPWAVTSLYEARNRTLNLAKLTGCSRENETEIIKCLRNKDPQEILLNEAFVVPYGTSLSVNFGPTVDGDFLTDMPDILLELGQFKKTQILVGVNKDEGTAFLVYGAPGFSKDNNSIITRKEFQEGLKIFFPGVSEFGKESILFHYTDWVDDQRPENYREALGDVVGDYNFICPALEFTKKFSEWGNNAFFYYFEHRSSKLPWPEWMGVMHGYEIEFVFGLPLERRDNYTKAEEILSRSIVKRWANFAKYGNPNETQNNSTSWPVFKSTEQKYLTLNTESTRIMTKLRAQQCRFWTSFFPKVLEMTGNIDEAEWEWKAGFHRWNNYMMDWKNQFNDYTSKKESCVGL
In the case of B3, the “Relative Activity of butyrylcholinesterase variants (WT = 1) with enhanced cocaine hydrolase activity” value (“Relative Activity” below) [2] is reported as 1.9.

B4: P285Q (protein, UniProt P06276 29-602, looked up, variant P285Q)
Cholinesterase: EDDIIIATKNGKVRGMNLTVFGGTVTAFLGIPYAQPPLGRLRFKKPQSLTKWSDIWNATKYANSCCQNIDQSFPGFHGSEMWNPNTDLSEDCLYLNVWIPAPKPKNATVLIWIYGGGFQTGTSSLHVYDGKFLARVERVIVVSMNYRVGALGFLALPGNPEAPGNMGLFDQQLALQWVQKNIAAFGGNPKSVTLFGESAGAASVSLHLLSPGSHSLFTRAILQSGSFNAPWAVTSLYEARNRTLNLAKLTGCSRENETEIIKCLRNKDPQEILLNEAFVVPYGTQLSVNFGPTVDGDFLTDMPDILLELGQFKKTQILVGVNKDEGTAFLVYGAPGFSKDNNSIITRKEFQEGLKIFFPGVSEFGKESILFHYTDWVDDQRPENYREALGDVVGDYNFICPALEFTKKFSEWGNNAFFYYFEHRSSKLPWPEWMGVMHGYEIEFVFGLPLERRDNYTKAEEILSRSIVKRWANFAKYGNPNETQNNSTSWPVFKSTEQKYLTLNTESTRIMTKLRAQQCRFWTSFFPKVLEMTGNIDEAEWEWKAGFHRWNNYMMDWKNQFNDYTSKKESCVGL
With B4 the “Relative Activity” value [2] was 2.4.

B5: A328W/F227A (protein)
chain: EDDIIIATKNGKVRGMNLTVFGGTVTAFLGIPYAQPPLGRLRFKKPQSLTKWSDIWNATKYANSCCQNIDQSFPGFHGSEMWNPNTDLSEDCLYLNVWIPAPKPKNATVLIWIYGGGFQTGTSSLHVYDGKFLARVERVIVVSMNYRVGALGFLALPGNPEAPGNMGLFDQQLALQWVQKNIAAFGGNPKSVTLFGESAGAASVSLHLLSPGSHSLFTRAILQSGSANAPWAVTSLYEARNRTLNLAKLTGCSRENETEIIKCLRNKDPQEILLNEAFVVPYGTPLSVNFGPTVDGDFLTDMPDILLELGQFKKTQILVGVNKDEGTWFLVYGAPGFSKDNNSIITRKEFQEGLKIFFPGVSEFGKESILFHYTDWVDDQRPENYREALGDVVGDYNFICPALEFTKKFSEWGNNAFFYYFEHRSSKLPWPEWMGVMHGYEIEFVFGLPLERRDNYTKAEEILSRSIVKRWANFAKYGNPNETQNNSTSWPVFKSTEQKYLTLNTESTRIMTKLRAQQCRFWTSFFPKVLEMTGNIDEAEWEWKAGFHRWNNYMMDWKNQFNDYTSKKESCVGL
modifications: Butyrylcholinesterase variant
For B5, the “cocaine hydrolysis activity compared to butyrylcholinesterase (in words)” value ([2]; compared to human butyrylcholinesterase) was “enhanced cocaine hydrolase activity”, the “increase in cocaine hydrolysis activity relative to butyrylcholinesterase” value [2] was “sixty-eight” and the “Relative Activity” value [2] was 68.

B6: S287G (protein, UniProt P06276 29-602, looked up, variant S287G)
Cholinesterase: EDDIIIATKNGKVRGMNLTVFGGTVTAFLGIPYAQPPLGRLRFKKPQSLTKWSDIWNATKYANSCCQNIDQSFPGFHGSEMWNPNTDLSEDCLYLNVWIPAPKPKNATVLIWIYGGGFQTGTSSLHVYDGKFLARVERVIVVSMNYRVGALGFLALPGNPEAPGNMGLFDQQLALQWVQKNIAAFGGNPKSVTLFGESAGAASVSLHLLSPGSHSLFTRAILQSGSFNAPWAVTSLYEARNRTLNLAKLTGCSRENETEIIKCLRNKDPQEILLNEAFVVPYGTPLGVNFGPTVDGDFLTDMPDILLELGQFKKTQILVGVNKDEGTAFLVYGAPGFSKDNNSIITRKEFQEGLKIFFPGVSEFGKESILFHYTDWVDDQRPENYREALGDVVGDYNFICPALEFTKKFSEWGNNAFFYYFEHRSSKLPWPEWMGVMHGYEIEFVFGLPLERRDNYTKAEEILSRSIVKRWANFAKYGNPNETQNNSTSWPVFKSTEQKYLTLNTESTRIMTKLRAQQCRFWTSFFPKVLEMTGNIDEAEWEWKAGFHRWNNYMMDWKNQFNDYTSKKESCVGL
For B6, the “Relative Activity” value [2] was 4.1.

B7: A328W (protein, UniProt P06276 29-602, looked up, variant A328W)
Cholinesterase: EDDIIIATKNGKVRGMNLTVFGGTVTAFLGIPYAQPPLGRLRFKKPQSLTKWSDIWNATKYANSCCQNIDQSFPGFHGSEMWNPNTDLSEDCLYLNVWIPAPKPKNATVLIWIYGGGFQTGTSSLHVYDGKFLARVERVIVVSMNYRVGALGFLALPGNPEAPGNMGLFDQQLALQWVQKNIAAFGGNPKSVTLFGESAGAASVSLHLLSPGSHSLFTRAILQSGSFNAPWAVTSLYEARNRTLNLAKLTGCSRENETEIIKCLRNKDPQEILLNEAFVVPYGTPLSVNFGPTVDGDFLTDMPDILLELGQFKKTQILVGVNKDEGTWFLVYGAPGFSKDNNSIITRKEFQEGLKIFFPGVSEFGKESILFHYTDWVDDQRPENYREALGDVVGDYNFICPALEFTKKFSEWGNNAFFYYFEHRSSKLPWPEWMGVMHGYEIEFVFGLPLERRDNYTKAEEILSRSIVKRWANFAKYGNPNETQNNSTSWPVFKSTEQKYLTLNTESTRIMTKLRAQQCRFWTSFFPKVLEMTGNIDEAEWEWKAGFHRWNNYMMDWKNQFNDYTSKKESCVGL
In the case of B7, the “Relative Activity” value [2] is reported as 7.
